# Laboratory results reported in patent US7527793 (RUSH UNIVERSITY MEDICAL CENTER, dated 2009).
# Assays:
# HLA-A2.1 on T2 cells [1] = target: T1, HLA-A2.1 on T2 cells (human); assay: peptide binding to HLA-A2.1+ T2 cells, complex stability; Brefeldin A 0 hr (T2 alone 226)
# T1 construct: Peptide-receptive HLA-A2.1 on T2 cells; also called HLA-A2.1 MHC class I molecules
# HLA-A2.1 on T2 cells [2] = target: T1, HLA-A2.1 on T2 cells; assay: peptide binding to HLA-A2.1+ T2 cells, complex stability; Brefeldin A 4 hr (T2 alone 187)
# HLA-A2.1 on T2 cells [3] = target: T1, HLA-A2.1 on T2 cells; assay: peptide binding to HLA-A2.1+ T2 cells, complex stability; no Brefeldin A (T2 alone 215)
# HLA-A2.1 on T2 cells [4] = target: T1, HLA-A2.1 on T2 cells; assay: peptide binding to HLA-A2.1+ T2 cells, complex stability; Brefeldin A 6 hr (T2 alone 157)
# HLA-A2.1 on T2 cells [5] = target: T1, HLA-A2.1 on T2 cells; assay: peptide binding to HLA-A2.1+ T2 cells, complex stability; Brefeldin A 2 hr (T2 alone 200)
# HLA-A2.1 on T2 cells [6] = target: T1, HLA-A2.1 on T2 cells; assay: peptide binding to HLA-A2.1+ T2 cells, complex stability; Brefeldin A overnight (T2 alone 255)
# HLA-A2.1 on T2 cells [7] = target: T1, HLA-A2.1 on T2 cells; assay: T2 peptide binding assay with beta2-microglobulin, anti-HLA-A2.1 staining, flow cytometry; index against T2 + beta2-microglobulin only (1.0)
binding score (HLA-A2.1 on T2 cells) (HLA-A2.1 on T2 cells [1]),binding score (HLA-A2.1 on T2 cells) (HLA-A2.1 on T2 cells [2]),binding score (HLA-A2.1 on T2 cells) (HLA-A2.1 on T2 cells [3]),binding score (HLA-A2.1 on T2 cells) (HLA-A2.1 on T2 cells [4]),binding score (HLA-A2.1 on T2 cells) (HLA-A2.1 on T2 cells [5]),binding score (HLA-A2.1 on T2 cells) (HLA-A2.1 on T2 cells [6]),Fluorescence Index (HLA-A2.1 on T2 cells [7]),Binder
426,217,428,168,334,157,,YIISGDSPL (Modified CD33 peptide) [YIISGDSPL (SEQ ID NO: 15)]
488,205,465,173,315,323,,YIILGDSPV (Modified CD33 peptide) [YIILGDSPV (SEQ ID NO: 12)]
840,839,591,680,929,593,,YIISGISPV (Modified CD33 peptide) [YIISGISPV (SEQ ID NO: 6)]
218,180,175,159,173,404,0.99,"TIQLNVTYV (Native CD33 nonamer, extracellular domain; also called CD33226-234) [CD33 peptide TIQLNVTYV (residues 226-234, SEQ ID NO: 9)]"
,,,,,,1.04,"ALLALCLCL (also called CD33269-277) [CD33 peptide ALLALCLCL (residues 269-277, SEQ ID NO: 8)]"

# Second part, the binder before the results:
Binder,binding score (HLA-A2.1 on T2 cells) (HLA-A2.1 on T2 cells [1]),binding score (HLA-A2.1 on T2 cells) (HLA-A2.1 on T2 cells [2]),binding score (HLA-A2.1 on T2 cells) (HLA-A2.1 on T2 cells [3]),binding score (HLA-A2.1 on T2 cells) (HLA-A2.1 on T2 cells [4]),binding score (HLA-A2.1 on T2 cells) (HLA-A2.1 on T2 cells [5]),binding score (HLA-A2.1 on T2 cells) (HLA-A2.1 on T2 cells [6]),Fluorescence Index (HLA-A2.1 on T2 cells [7])
YIISGDSPV (Modified CD33 peptide) [YIISGDSPV (SEQ ID NO: 3)],641,380,547,216,588,248,
YIISGDSWV (Modified CD33 peptide) [YIISGDSWV (SEQ ID NO: 14)],247,208,209,173,247,298,
YIIIGDSPV (Modified CD33 peptide) [YIIIGDSPV (SEQ ID NO: 11)],301,208,263,172,257,325,
YIGSGDSPV (Modified CD33 peptide) [YIGSGDSPV (SEQ ID NO: 10)],687,167,515,151,,,
YLISGDSPV (Modified CD33 peptide) [YLISGDSPV (SEQ ID NO: 7)],728,745,701,594,810,479,
YIISGDLPV (Modified CD33 peptide) [YIISGDLPV (SEQ ID NO: 13)],724,307,619,203,524,296,
ALISGDSPV (Modified CD33 peptide) [ALISGDSPV (SEQ ID NO: 16)],677,692,603,609,882,366,
